Experimental data published in article PMC6946400.

Columns and labels:
[1] = system: VASH1 27-kDa N-terminal part-GST; assay: SPR; details: HBS-EP: 10 mM Hepes pH 7.4, 150 mM NaCl, 3 mM EDTA, 0.005% surfactant P20 (stated for immobilization); SA chip, Biacore T200, protein 16.25-300 nM, 1:1 …
VASH1 full-length 44 kDa = assay: SPR; details: single-cycle kinetics; HBS-EP: 10 mM Hepes pH 7.4, 150 mM NaCl, 3 mM EDTA, 0.005% surfactant P20 (stated for immobilization); SA chip, Biacore T200, protein 16.25-300 nM, 1:1 …

| Substance | Kd [1] [nM] | Kd (VASH1 full-length 44 kDa) [nM] |
| --- | --- | --- |
| FGF1 IRES | 2800 | 6.5 |
| VEGFAa IRES | – | 8 |
| EMCV IRES | – | 9.6 |
